System: peptide library, one residue held at a place counted from the S/T acceptor
Assay: relative phosphorylation of the sub-library (ratio to the mean residue at this position); higher = residue favoured
Conditions: human
Procedure, shortened: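 Each biotinylated degenerate peptide sub-library fixed one residue at one position around a central Ser/Thr and was incubated with a purified recombinant kinase, a human or orthologue construct, in 384-well plates. The 90 min reactions, under kinase-specific conditions, contained 50 μM peptide and 50 μM ATP spiked with γ-32P-ATP. Phosphorylation was read by phosphorimaging spots on streptavidin membranes and quantifying them by densitometry. Relative sub-library phosphorylation expresses each value as a ratio to the mean residue at that position.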

Sequence of MYLK3, construct: aa490-end (Q32MK0 490-819, looked up): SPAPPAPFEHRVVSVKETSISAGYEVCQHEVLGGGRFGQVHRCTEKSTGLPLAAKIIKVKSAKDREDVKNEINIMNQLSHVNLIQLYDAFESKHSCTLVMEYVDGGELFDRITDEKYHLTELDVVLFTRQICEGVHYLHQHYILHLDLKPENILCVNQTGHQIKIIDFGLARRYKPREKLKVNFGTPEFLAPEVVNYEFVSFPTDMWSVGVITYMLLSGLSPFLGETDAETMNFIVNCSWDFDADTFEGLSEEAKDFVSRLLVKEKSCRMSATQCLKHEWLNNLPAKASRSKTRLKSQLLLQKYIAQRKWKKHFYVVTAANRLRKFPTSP
Sequence of MYO3B, construct: aa1-326 (Q8WXR4 1-326, looked up): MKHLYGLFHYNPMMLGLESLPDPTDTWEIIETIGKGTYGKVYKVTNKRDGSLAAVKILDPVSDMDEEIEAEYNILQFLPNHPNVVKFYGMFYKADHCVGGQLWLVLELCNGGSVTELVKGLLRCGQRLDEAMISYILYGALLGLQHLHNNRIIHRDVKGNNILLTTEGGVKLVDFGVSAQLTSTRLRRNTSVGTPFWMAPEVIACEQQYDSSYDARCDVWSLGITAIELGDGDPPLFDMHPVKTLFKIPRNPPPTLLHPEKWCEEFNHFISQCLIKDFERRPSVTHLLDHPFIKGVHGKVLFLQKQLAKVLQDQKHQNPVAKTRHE

MYLK3, construct: aa490-end (from UniProt Q32MK0)
relative phosphorylation
Conditions	at +1	at +2	at +3	at +4	at -1	at -2	at -3	at -4	at -5
A fixed	0.997	0.992	0.828	1	0.944	0.927	0.967	1.04	0.985
D fixed	0.753	0.819	0.786	0.983	0.851	0.585	0.67	0.758	0.72
E fixed	0.833	0.958	0.758	1.01	0.799	0.585	0.667	0.836	0.722
F fixed	0.951	1.06	1.43	1.02	0.964	0.641	0.71	0.904	0.919
G fixed	0.937	0.89	0.861	1.04	0.913	0.788	0.879	1.01	0.982
H fixed	0.922	0.995	0.943	1.07	1.03	1.09	0.884	0.976	0.987
I fixed	1.1	1.19	0.997	1.03	0.971	0.656	0.748	0.936	1.09
K fixed	1.25	0.972	0.81	0.941	1.09	1.44	1.41	1.42	1.29
L fixed	0.938	1	1.2	1.04	1.24	0.653	0.711	0.918	0.983
M fixed	1.18	1.02	0.953	0.932	1.2	0.711	0.756	0.991	1.04
N fixed	0.961	0.863	0.839	0.93	1.07	0.737	0.717	0.867	0.813
P fixed	0.786	0.899	0.876	1.18	0.956	0.778	0.933	1.01	1.11
Q fixed	1.1	0.887	0.786	0.937	0.949	0.762	0.77	0.902	0.85
R fixed	1.43	1.07	0.821	1	1.17	4.7	3.93	1.62	1.68
V fixed	1.12	1.19	0.889	0.943	0.972	0.668	0.773	1.01	1.01
W fixed	0.839	0.997	2.22	1.05	0.862	0.63	0.735	0.858	0.813
Y fixed	0.908	1.19	1	0.902	1.02	0.647	0.729	0.938	1
pThr fixed	1.12	1.06	0.774	1.08	0.769	0.637	0.724	0.809	0.728
pTyr fixed	0.83	1.06	0.883	1.02	0.882	0.644	0.994	0.844	0.798

MYO3B, construct: aa1-326 (from UniProt Q8WXR4)
relative phosphorylation
Conditions	at +1	at +2	at +3	at +4	at -1	at -2	at -3	at -4	at -5
A fixed	0.835	0.824	0.907	0.917	1.11	0.997	1.06	0.977	1.15
D fixed	0.195	0.346	0.286	0.408	0.679	0.489	0.538	0.954	0.81
E fixed	0.182	0.272	0.222	0.412	0.633	0.316	0.576	0.933	0.843
F fixed	0.583	0.641	0.831	0.682	0.908	1.44	1.07	1.05	1.01
G fixed	0.936	0.951	1.04	1.24	1.61	1.32	1.8	1.33	1.38
H fixed	0.628	1.1	1.01	1.03	1.18	1.25	1.13	1.14	1.08
I fixed	1.1	0.515	0.595	0.683	0.38	0.578	0.728	0.783	0.787
K fixed	2.3	2.56	2.29	2.28	0.958	0.787	0.946	1.04	1.14
L fixed	1.53	0.724	0.838	0.663	0.945	0.713	0.901	0.82	0.757
M fixed	1.57	0.756	0.71	0.714	1.33	0.857	1.11	0.939	0.947
N fixed	0.754	0.835	0.911	1.03	1.28	0.95	0.939	0.96	0.899
P fixed	0.276	0.96	1.18	1.05	0.601	0.622	0.891	0.953	1.27
Q fixed	1.08	0.752	0.736	0.988	1.04	0.816	0.823	0.946	0.856
R fixed	2.66	3.56	3.06	2.38	1.58	1.72	1.18	1.13	1.15
V fixed	0.809	0.552	0.671	0.702	0.495	0.597	0.582	0.769	0.879
W fixed	0.791	0.737	0.807	1	0.856	1.52	1.28	1.17	0.993
Y fixed	0.781	0.919	0.902	0.826	1.41	2.03	1.44	1.1	1.04
pThr fixed	0.449	0.389	0.599	0.309	0.335	0.494	0.678	0.852	0.895
pTyr fixed	0.308	0.266	0.551	0.392	1.24	0.596	0.873	0.888	1.1
